The target of assay [1] is T1, recombinant rat HMGB-1 labelled with europium (rat, UniProt P63159 1-215, limits assumed, Eu label, molar ratio HMGB-1 to Eu 1:5).
T1 construct: also called Europium-labeled HMGB-1
T1 sequence (looked up): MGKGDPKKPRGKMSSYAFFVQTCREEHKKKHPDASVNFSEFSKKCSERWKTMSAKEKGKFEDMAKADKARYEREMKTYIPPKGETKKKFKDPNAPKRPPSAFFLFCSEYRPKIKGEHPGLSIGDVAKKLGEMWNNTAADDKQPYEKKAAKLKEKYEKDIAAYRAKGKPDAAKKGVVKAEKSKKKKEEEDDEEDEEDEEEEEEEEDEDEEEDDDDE
Briefly: inhibition of binding of 2 nM Eu-labelled recombinant rat HMGB-1 to THP-1 cells. The protocol:
HMG1 binding to THP-1 Cells: Recombinant rat HMGB-1 was labeled using Eu-labelling Kit from PerkinElmer. Molar ratio of HMGB-1 to Eu is 1:5. THP-1 were cultured as the protocol from ATCC. Cells were harvested and suspended at concentration 1×10⁶/ml in assay buffer containing 1×DELFIA L*R binding buffer (PerkinElmer), 50% of DELFIA stabilizer (PerkinElmer) and 0.05% of sodium azide. 100 μl of cells (1×10⁵) was added into wells in 96 well cell culture plate. The plate was incubated with gentle shaking at 4° C. for one hour. 100 μl of assay buffer containing 2 nM of Europium-labeled HMGB-1 mixed with various concentrations (333, 166.5, 83.25, 41.6, 20.8, 10.4 and 5.2 nM) of human anti-HMGB1 antibodies E11 or G2 or soluble human RAGE-Fc, were added into each wells respectively. After one hour incubation with gentle shaking at 4° C., the cells were washed four times with 1×L*R wash buffer (PerkinElmer) by centrifuging at 1200 rpm×5 min. 200 μl of enhancement solution was added into each well to dissociate and enhance Eu fluorescence at 615 nm. The fluorescence was measured with Wallac Victor Fluorometer. Assay was performed in triplicate and human antibody R3-47 was used the negative isotype control.

The target of assay [2] is T2, recombinant HMG1 produced in E. coli as a calmodulin binding protein (CBP) fusion (human).
T2 construct: also called rHMG1; rHMGB1
Briefly: sandwich ELISA: antibody titrated and captured on anti-human IgG Fc, soluble recombinant HMG1 at 2 ug/ml, mouse anti-HMGB1 and anti-mouse IgG-HRP, OD 450. The protocol: (§1) Sandwich ELISA (soluble HMG1): Immunoplates (EIA/RIA plate, High binding, Costar) were coated with anti human IgG Fc at 10 μg/ml in PBS (pH 7.2) and incubated at 4° C. overnight. The coating reagent was removed and the plates were rinsed briefly with PBS. The plates were then blocked with 4% milk for 1 hour at 37° C. and rinsed with PBS. The anti-HMG1 antibodies were diluted in 4% milk. For serial dilutions, the antibodies were used at a starting concentration of 20 μg/ml. The diluted anti-HMG1 antibodies were then added into plate and incubated for 1 hr at 37° C. The plate was then washed 10 times with PBST (PBS/0.1% tween 20) and incubate with antigen (HMGB1, 2 μg/ml; or 0.7 μg/ml for native HMGB1) in 4% milk and incubated at 37° C. for 1 h. The plate was then wash 10 times and incubated with mouse anti-HMGB1, 1 μg/ml in 4% milk at 37° C. for 1 h. The plate was washed 10 times and incubated with anti-mouse IgG-HRP at 1:1000 at 37° C. for 1 h. The plate was then washed and developed. HRP activity was detected with Sureblue HRP substrate (KPL). Plates were read at 450 nm using a Kinetic Microplate Reader (Molecular Devices).
On the technique in general: ELISA stands for enzyme-linked immunosorbent assay.

Assay [3] deals with T3, actively secreted HMGB1 of LPS treated HUVEC cells (UniProt P09429 1-215, limits assumed).
T3 construct: whole, on cells; immunostaining
T3 sequence (looked up): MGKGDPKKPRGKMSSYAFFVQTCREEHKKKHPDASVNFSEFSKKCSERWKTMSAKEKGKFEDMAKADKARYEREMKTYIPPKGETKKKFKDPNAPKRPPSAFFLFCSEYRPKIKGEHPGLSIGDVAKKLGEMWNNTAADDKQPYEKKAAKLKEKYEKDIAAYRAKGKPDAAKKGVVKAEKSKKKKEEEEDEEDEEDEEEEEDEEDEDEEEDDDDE
Briefly: immunofluorescence on fixed LPS treated HUVEC, anti-human IgG-FITC; paragraph 81 gives the lower panels as G4. The protocol:
Immunofluorescence: Intracytoplasmic (ic) HMGB1 was quantitated by direct immunofluorescence. HUVEC were harvested by trypsin-EDTA treatment and seeded on a glass coverslip. Once the cells are settled, they were stimulated with 0.2 μg/ml of LPS (Sigma) for 4 hours. The cells were fixed in 2% paraformaldehyde for 15 min and then permeabilized in 0.2% Triton X-100 for 2 min. Fixed and permeabilized cells were incubated with anti-HMGB1 antibodies at 1 μg/ml for 1 hour at room temperature. Cells were then washed to remove excess or nonspecifically bound primary antibody followed by incubation with anti human IgG conjugated with fluorescence (Pierce). The sections were mounted with fluoromount (Southern Associates, Birmingham, Ala.), and the images were processed with a Nikon microscope (Japan) and a SPOT imaging system (Diagnostic Instrument).

Assay [4] deals with T4, released HMG1 from conditioned medium of necrotic 293H cells (human, UniProt P09429 1-215).
T4 construct: also called necrotic HMG1
T4 sequence (looked up): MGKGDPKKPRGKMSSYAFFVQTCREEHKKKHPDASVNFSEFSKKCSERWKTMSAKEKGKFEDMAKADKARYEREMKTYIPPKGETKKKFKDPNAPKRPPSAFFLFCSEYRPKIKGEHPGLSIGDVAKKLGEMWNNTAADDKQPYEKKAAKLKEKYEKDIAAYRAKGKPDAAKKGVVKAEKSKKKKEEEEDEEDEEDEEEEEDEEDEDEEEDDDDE
Briefly: sandwich ELISA: antibody titrated and captured on anti-human IgG Fc, released HMG1 in solution, mouse anti-HMGB1 detection, OD 450. The protocol:
as §1

In assay [5] the target is T5, activated HMG1 from LPS stimulated THP-1 cells (human, UniProt P09429 1-215).
T5 sequence (looked up): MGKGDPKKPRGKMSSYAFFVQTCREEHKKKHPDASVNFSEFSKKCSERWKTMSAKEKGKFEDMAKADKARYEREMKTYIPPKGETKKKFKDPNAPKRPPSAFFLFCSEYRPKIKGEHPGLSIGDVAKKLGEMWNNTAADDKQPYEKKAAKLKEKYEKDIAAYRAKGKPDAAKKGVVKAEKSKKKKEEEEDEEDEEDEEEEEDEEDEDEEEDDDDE
The assay can be described thus: sandwich ELISA: antibody titrated and captured on anti-human IgG Fc, activated HMG1 in solution, mouse anti-HMGB1 detection, OD 450. How it is done: as §1

For assay [6], the target named is T6, native nuclear HMG1 from freeze-thawed 293H cells (human, UniProt P09429 1-215).
T6 construct: unpurified cell supernatant
T6 sequence (looked up): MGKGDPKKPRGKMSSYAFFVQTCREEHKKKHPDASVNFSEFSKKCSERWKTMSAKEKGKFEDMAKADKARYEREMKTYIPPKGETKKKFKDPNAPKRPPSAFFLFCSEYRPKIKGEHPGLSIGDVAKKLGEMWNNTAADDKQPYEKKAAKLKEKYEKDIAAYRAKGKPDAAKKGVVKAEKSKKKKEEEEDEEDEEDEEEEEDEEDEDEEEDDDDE
The assay can be described thus: sandwich ELISA: antibody titrated and captured on anti-human IgG Fc, native nuclear HMG1 at 0.7 ug/ml, mouse anti-HMGB1 and anti-mouse IgG-HRP, OD 450. How it is done: as §1

We go through three molecules from US20110287023A1 (AstraZeneca / MedImmune, published 2011).

In general, IC50 refers to the concentration at which inhibition is half-maximal. Broadly, the EC50 (read off the curve) is the midpoint of the concentration-response curve.

B1: human anti-HMG1 antibody E11 (antibody, IgG1, V domains shown)
VH: EVQLLESGGGLVQPGGSLRLSCAASGFTFSRYQMNWVRQAPGKGLEWVSSISPSGGHTHYADSVKGRFTISRDNSKNTLYLQMNSLRAEDTAVYYCAKDGRQGKISTVDHWGQGTLVTVSS
VL: DIQMTQSPGTLSLSPGERATLSCRASQSVRSNFLAWYQQKPGQAPRLLIYGASRRASGIPDRFSGSGFGADFTLSISRLEPEDFAVYYCQQYGSSPNTFGQGSRVEIK
notes: full length IgG1 made from a human Fab phage clone
With B1, in assay [1], the IC50 came to 48.1 nM.

B2: human anti-HMG1 antibody S16 (antibody, IgG1, V domains shown)
VH: EVQLLESGGGLVQPGGSLRLSCAASGFTFSWYSMLWVRQAPGKGLEWVSYISPSGGFTNYADSVKGRFTISRDNSKNTLYLQMNSLRAEDTAVYYCARWDYNSGWYYDHWGQGTLVTVSS
VL: DIQMTQSPDTLSLSPGERATLSCRASQSVNSRNLAWYQQKPGQAPRLLIYGASTRATGIPDRFSGSVSGTEFTLTISSLQPDDFATYYCQQYNSYFTFGQGTKLEIK
notes: full length IgG1 made from a human Fab phage clone; also called ATCC PTA-6259
As to B2, the “EC50 (read off the curve)” value in assay [2] was about 0.08 µg/mL.

B3: human anti-HMG1 antibody G4 (antibody, IgG1, V domains shown)
VH: EVQLLESGGGLVQPGGSLRLSCAASGFTFSWYDMTWVRQAPGKGLEWVSSISPSGGYTKYADSVKGRFTISRDNSKNTLYLQMNSLRAEDTAVYYCTTEFYDYLDVWGKGTTVTVSS
VL: DIQMTQSPGTLSLSPGEGATLSCRASQSVSSTYLAWYQQKPGQAPRLLIYEASKRATGTPARFSGSGSGTDFTLSISSLEPEDFAVYYCQHRHNWPPQWTFGQGTKVEVK
notes: full length IgG1 made from a human Fab phage clone; also called ATCC PTA-6258
As to B3, the binding result in assay [3], in assay [4], in assay [5] and in assay [6] was “binds” in each case.
